Test results published in paper PMC2671235 (Biochemistry, 2009).
Ends that are not written are not given here.

B1: S100A11 (natural protein, human, UniProt P31949 1-105, looked up)
chain: MAKISSPTETERCIESLIAVFQKYAGKDGYNYTLSKTEFLSFMNTELAAFTKNQKDPGVLDRMMKKLDTNSDGQLDFSEFLNLIGGLAMACHDSFLKAVPSQKRT
B2: Annexin I peptide (peptide)
peptide: Ac-AMVSEFLKQAWFIE

Columns and labels:
S100A11 [1] = molecular target: B1; experiment: ITC
S100A10 = S100A10 (human, UniProt P60903 1-97); experiment: ITC
Annexin I peptide = molecular target: B2; experiment: ITC
S100A11 [2] = molecular target: B1; experiment: other fluorescence titration
S100A6 [3] = molecular target: T1, S100A6 (human, UniProt P06703 1-90); experiment: other fluorescence titration
S100A11 [4] = molecular target: B1; experiment: ITC; remark: listed apart in the source
S100A6 [5] = molecular target: T1, S100A6; experiment: ITC

S100A10, sequence (P60903 whole entry): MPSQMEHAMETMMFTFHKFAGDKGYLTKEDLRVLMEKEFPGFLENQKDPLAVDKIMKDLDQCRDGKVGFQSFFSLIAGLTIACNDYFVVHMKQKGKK

Ac-STVHEILSKLSLEGY [Annexin II peptide]
stoichiometry N (S100A11 [1]): 2 binding sites per dimer
stoichiometry N (S100A10): 2 binding sites per dimer

B1
dH at 15°C (Annexin I peptide): -0.956 kcal/mol
dH at 35°C (Annexin I peptide): -7.17 kcal/mol
stoichiometry N (Annexin I peptide): 2 binding sites per dimer

B2
Kd (S100A11 [2]): 5 ± 1 µM
Kd (S100A6 [3]): 17 ± 4 µM
Kd (S100A11 [4]): 5 ± 2 µM
Kd (S100A6 [5]): 13 ± 4 µM
